{"source": "paper doi:10.1101/2022.11.16.516715", "about": "(bioRxiv, 2022)", "proteins": {"B1": {"name": "RsmA (natural protein)", "chain": "not shown"}}, "molecular_target": "the molecule itself", "assay": "cryo-EM structure", "data": [{"protein": "B1", "values": [{"measurement": "binding result", "result": "binds"}]}]}
